Source: patent US20020002269A1, “ARTEMIN, A NEUROTROPHIC FACTOR” (priority 1998, published 2002)

B1: GDNF: recombinant human mature GDNF obtained from Genentech (protein, UniProt P39905 78-211, looked up)
Glial cell line-derived …: SPDKQMAVLPRRERNRQAAAANPENSRGKGRRGQRGKNRGCVLTAIHLNVTDLGLGYETKEELIFRYCSGSCDAAETTYDKILKNLSRNRRLVSDKVGQACCRPIAFDDDLSFLDDNLVYHILRKHSAKRCGCI

Key:
Type in all cases: cell-based
[1] = test system: CHP126 neuroblastoma cell line; assay: Responsiveness of a neuroblastoma cell line that does not express RET (CHP126); conditions: data not shown
[2] = target: T1, RET (Homo sapiens, UniProt P07949); assay: Western blot of RET phosphorylation and MAP kinase activation in NBL-S cells, with or without PI-PLC; conditions: FIG. 9B
T1 construct: both the SH-SY5Y and NBL-S cell lines express GFRα1, GFRα2, and GFRα3, as well as RET; endogenous in cells; host or cells: NBL-S neuroblastoma cells
Description: In brief, SCG neurons were dissected from postnatal day 1 (P1) rats and maintained in NGF-containing medium for 5 days, after which they were deprived of NGF by switching to NGF-free medium in the presence of anti-NGF antibodies. After 2 hours without NGF, neurons were switched to medium containing NGF, GDNF or artemin at 50 ng/ml for 20 minutes. Cells were washed in cold PBS, and collected in immunoprecipitation buffer (1 mM EDTA/1 mM EGTA/0.2 mM NaVO3/1 mM Pefabloc/1 uM pepstatin A/10 ug/ml leupeptin/2 ug/ml aprotinin/1% Triton X-100/0.5% Nonidet P-40/150 mM NaCl in 10 mM Tris, pH 7.4). The lysates were incubated with 30 μl agarose-conjugated anti-phosphotyrosine antibodies (Calbiochem) at 4° C. for 1 hr. Beads were then washed three times with immunoprecipitation buffer, resuspended in SDS sample buffer, and boiled for 5 min. Samples were separated using SDS-PAGE, and transferred to nitrocellulose membranes. Membranes were blocked for 1 hr at 25° C. in TBS containing 5% dry milk, incubated overnight 4° C. with a 1:300 dilution of anti-Ret antibody (C-19; Santa Cruz), then washed (3× in TBS containing 0.1% Tween-20) and incubated in a 1:10,000 dilution of anti-rabbit antibodies conjugated to HRP (Jackson Immunoresearch). Membranes were washed 3×, incubated with SuperSignal ULTRA (Pierce) for 5 minutes, then exposed to film. For MAP kinase (MAPK) assays, a portion of the total lysate wars removed before immunoprecipitation, separated by SDS-PAGE, and immunoblotted using an anti-phospho-MAP-kinase antibody (New England Biolabs).
NBL-S cells were plated at 3×10^5 cells/well in 6-well plates, and after 46 hr switched to low-serum (0.5%) medium for 2 hr, and then stimulated with NGF, GDNF or artemin (50 ng/ml) for 20 min. Cells were then collected and analyzed as above. For PI-PLC treatment, a parallel set of NBL-S cells were plated as above but treated with 500 mU/ml of PI-PLC (Boehringer-Mannheim) for 1 hr, and washed with PBS and stimulated with factors as above.

[3] = target: T2, GFRα2/RET (Homo sapiens, UniProt O00451+P07949); assay: Ga14-Elk/Ga14-Luc reporter in RET-3T3 fibroblasts transfected with GFRα2; conditions: RET-3T3, 50 ng/ml for 6-8 hours, FIG. 10A
T2 construct: expressed in transfected cells; host or cells: MG87 fibroblasts stably expressing human RET (RET-3T3), transiently transfected with the CMV-GFRα2 plasmid
Description: Thus, to directly test which receptor combinations can form functional receptors for artemin, expression plasmids for the individual GFRA coreceptors together with the Ga14-Elk/Ga14-Luc reporter system were transiently transformed into fibroblasts that stably express RET. […]
NLF neuroblastoma cells, which naturally express GFRα2/RET (Tansey et al., submitted), or the RET-3T3 cells were plated at 85,000 cells/well in 12-well plates, and cotransfected with the reporter plasmids Ga14-Luc and CMV-Ga14-Elk (250 ng/well and 50 ng/well, respectively), CMV-lacZ (50 ng/well) for transfection normalization, one of the CMV-GFRA expression plasmids (500 ng/well), and pBluescript (650 ng/well) as carrier for a total of 1.5 μg DNA/well using the Superfect reagent (Qiagen) according to the manufacturer's instructions. […] Measurement of luciferase and β-galactosidase activity was measured using a luminometer and performed as described (Svaren et al., EMBO J 17:6010-6019, 1998). The average luciferase activity of duplicate samples was normalized to β-galactosidase activity of the cotransformed lacZ reporter, and fold activation was calculated by dividing the normalized activity in factor-treated cells by that in the no treatment control.

T1 sequence (P07949 29-1114): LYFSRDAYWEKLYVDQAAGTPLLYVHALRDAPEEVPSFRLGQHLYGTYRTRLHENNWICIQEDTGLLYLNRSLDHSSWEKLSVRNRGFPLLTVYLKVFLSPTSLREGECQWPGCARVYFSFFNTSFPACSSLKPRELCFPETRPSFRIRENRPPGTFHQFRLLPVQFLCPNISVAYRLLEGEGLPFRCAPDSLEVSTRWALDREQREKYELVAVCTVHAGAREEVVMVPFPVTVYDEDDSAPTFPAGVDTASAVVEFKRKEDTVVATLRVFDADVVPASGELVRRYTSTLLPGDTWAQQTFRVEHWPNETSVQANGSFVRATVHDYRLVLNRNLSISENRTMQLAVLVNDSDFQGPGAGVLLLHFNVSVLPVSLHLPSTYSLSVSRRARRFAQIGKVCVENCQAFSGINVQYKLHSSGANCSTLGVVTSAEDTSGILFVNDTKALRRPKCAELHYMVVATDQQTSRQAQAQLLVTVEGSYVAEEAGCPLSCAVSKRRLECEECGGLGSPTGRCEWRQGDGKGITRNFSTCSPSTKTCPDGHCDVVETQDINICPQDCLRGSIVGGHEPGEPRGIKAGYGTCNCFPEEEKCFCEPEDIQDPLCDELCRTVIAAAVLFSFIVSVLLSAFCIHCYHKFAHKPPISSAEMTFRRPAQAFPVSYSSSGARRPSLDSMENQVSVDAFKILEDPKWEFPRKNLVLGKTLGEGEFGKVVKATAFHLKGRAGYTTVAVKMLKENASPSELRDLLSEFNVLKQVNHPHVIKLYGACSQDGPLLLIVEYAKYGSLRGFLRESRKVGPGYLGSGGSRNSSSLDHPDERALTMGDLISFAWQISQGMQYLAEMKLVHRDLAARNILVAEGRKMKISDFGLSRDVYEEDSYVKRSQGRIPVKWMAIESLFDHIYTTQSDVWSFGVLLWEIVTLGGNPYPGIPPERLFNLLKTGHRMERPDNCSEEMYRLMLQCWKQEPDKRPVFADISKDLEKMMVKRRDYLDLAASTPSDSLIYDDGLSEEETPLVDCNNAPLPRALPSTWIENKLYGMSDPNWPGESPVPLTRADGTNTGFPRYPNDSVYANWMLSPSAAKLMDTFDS
T2 sequence (O00451 22-444 limits assumed): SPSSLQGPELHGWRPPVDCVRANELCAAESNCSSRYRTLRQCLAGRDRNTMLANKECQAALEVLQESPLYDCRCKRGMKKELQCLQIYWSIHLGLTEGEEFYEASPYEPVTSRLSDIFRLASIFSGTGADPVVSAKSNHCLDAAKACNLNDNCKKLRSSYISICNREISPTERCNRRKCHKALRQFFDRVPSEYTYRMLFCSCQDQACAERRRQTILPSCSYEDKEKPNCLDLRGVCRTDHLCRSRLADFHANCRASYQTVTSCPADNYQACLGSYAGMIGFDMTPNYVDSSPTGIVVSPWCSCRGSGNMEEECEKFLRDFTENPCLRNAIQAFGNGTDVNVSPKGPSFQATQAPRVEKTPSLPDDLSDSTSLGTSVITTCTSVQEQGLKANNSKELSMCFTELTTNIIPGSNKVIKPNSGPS
T2 sequence (P07949 29-1114): as the sequence (P07949 29-1114) above

Molecule	response of CHP126 cells [1]	downstream signaling (activation of the MAP kinase pathway) in NBL-S cells ([2]; 50 ng/ml for 20 min)	tyrosine-phosphorylation of RET in NBL-S cells ([2]; 50 ng/ml for 20 min)	effect of PI-PLC pretreatment on signaling in NBL-S cells ([2]; 500 mU/ml PI-PLC for 1 hr, then factor 50 ng/ml for 20 min)	activation of RET signaling in cells expressing GFRα2/RET (luciferase reporter) [3]
artemin: recombinant mature human artemin (FIG. 3A, SEQ ID NO:3) with 8-histidine tag, produced in E. coli; GDNF family neurotrophic factor	did not respond	effective in eliciting downstream signaling	induced tyrosine-phosphorylation of RET	abolished artemin's ability to activate RET and all downstream signaling	not GFRα2/RET
B1	did not respond		induced tyrosine-phosphorylation of RET		activated RET signaling
